Our source for the ATPase activity of nsP2-NT (0.2 μg) with nsP1-WT (0.6 μg) against nsP2-NT alone, TLC assay with [γ-P32] ATP, release of free Pi and ATPase activity of nsP2-NT (1 μg) with nsP1-WT (1 μg), colorimetric malachite green assay, Pi release (approximately 86 μM for nsP2-NT alone) values is article PMC5773547.

The target of the assay is His-tagged recombinant CHIKV nsP2-NT (1-454) (Chikungunya virus strain S 27).

On to “His-tagged recombinant CHIKV nsP1-WT (1-535) (from UniProt Q8JUX6 1-535) (enzyme)”, for which the ATPase activity of nsP2-NT (0.2 μg) with nsP1-WT (0.6 μg) against nsP2-NT alone, TLC assay with [γ-P32] ATP, release of free Pi came out at 1.5 fold and the ATPase activity of nsP2-NT (1 μg) with nsP1-WT (1 μg), colorimetric malachite green assay, Pi release (approximately 86 μM for nsP2-NT alone) worked out at 174 µM.
